Test results reported in publication PMC12658286.

Experiments:
[1] = Western blot of PD-L1; conditions: glycan lost; control: untreated HepG2 cells
[2] = Flag-PD-L1 IP with HA-Ub, Western blot; conditions: glycan gained; control: control-transfected HepG2 (vector / siNC), MG132

| Substance | expression_or_secretion [1] | other: ubiquitination [2] |
| --- | --- | --- |
| PD-L1: tunicamycin (2 µg/mL, 18 h) | decreases |  |
| PD-L1: GALNT16 overexpression |  | decreases |
